Experimental data as given in the domain aggregation screens of Martell et al. (2025).

Assay: soluble fraction after stress (log2 fold change); higher = more stays soluble; pooled small domains, quantitative proteomics
Conditions: stress: pH 4
In short: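 Custom libraries of small protein domains were pooled and exposed to pH 4. High-throughput quantitative proteomics then measured the log2 fold change in the amount of each domain still soluble, with higher values meaning more stayed soluble. This soluble-fraction fold change stands for aggregation propensity.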

| Sequence | soluble fraction (log2) |
| --- | --- |
| HMSDAVQLGLRLRAARERRGLSQQAVADALGLPRTAVTNMESGNRAVSTLELTKLAALYGQSTAFFLSP | 0.291 |
| HMPDLSEDEEKIVSLLRDNNDLNVNIIVMRTQLPSATVTSSLFSLELKGVVRMYAGGMYHLM | 0.0385 |
| HMETVSFNPDIAVIPDYRHVVILGETTKTIANKYDIPVDILKAANPGLGNNVTKGDRLRVPDKTKLQ | -0.0151 |
| HMITLYIHNLEEVGKRLDHYLVSNLDDHSRSQIQSWIRSGSILVNDRSVKTGYSLELNDQILINPPK | -0.15 |
| HMQVVDWSQVDKEDYLLATKRRAVSTGELKFLLLNNLTYDLTQTRFFKGMDASYYYEGYNLYQTGE | -0.693 |
| HMFMMVAGHLQIKNEKYYMVLELRTEQGERKTKWIGTGLAVKGNKRRAEAMLEETRTKYLSPV | -0.177 |
| HMRKDYTVLYSAVNAEEATEIVSKLQESGVAYQYKDNGDVLVDKKQVDKVRAQLAQEGYPKS | -0.204 |
| HMVVSDSAEIDKIVQDVIAANPKAIEDFKSGKTNVTGWLMGQVMKLSHGKANPKQATEILNKYLSK | 0.18 |
| HMPPNVLSEREQEVLQLAADGMSNKEMGSELYIAPTTVRDHMQSIMRKLQVNSRTAAAVAGLKLGLLD | -0.422 |
| HMVDPELFIWVESSKEPVYHLAYKIELFVHSTDPQDDVPVHRWQVFVDAHNGNILDKFDEVR | -1.65 |
| HMDSDELEAFRLITSVNGVGPKLGIAILSEFTAEKLTVFIASGDAKALTAASGVGIKLAQRIVLELKDKVG | -0.184 |
| HMFPASQPVPTDLNQIVRAGLEVFSGRLEGIDVRVSLEPELPRVNVDPEHFKRIVVNLVDNAAEAMQNS | -0.0189 |
| HMHVSIAENIRRIRTQHDMTQEEFGKVAAVSAMAVSQWENGRAVPRMGAVQRIADYFNISKGEVID | 0.121 |
| HMALHDTLSYEEYLDLGLNGKADSAEKRELVAHALHLGRPNAKTLYKRLNMLQLNRKDVAALLEQ | 0.299 |
| HMIDLSELINKTGSAYTNLRPSGTAVIGDDRVDVVTEGTFVEKDRPVKVVAVEGQRVVVREVE | -0.206 |
| HMDATFKVRVSVPDLNIRSGPGTNYAATGRFTGVGVFTITAVQSGQGSSSGWGKLKSGAGWIALDYAKR | 0.341 |
| HMDTFNVIARQEIDGILYEYKIMTVEDYKNQSPENLAVIYENIKAVMEQYDLSEDDADAILVDLLG | -1.51 |
| HMAVENTGLSKRELEILQMMARGMSNQEIGDALFISLSTVKTHVASIFSKLQAVRRTQAVGIAKSLKII | -0.367 |
| HMGIEQVELASRVRDAVDSLPHHLREIILLSYFQKMSYNQIAETLQVPLGTVKSRLHAAVASFAQAWTQSS | -0.658 |
| HMSDHSSLAGKEGVAVTPLRPAGTAEIDGKRMDVVTMGDYIKAGDHIKVVKVEGNRIIVAKN | -0.0102 |
| HMGSDAFDISKLNLVGKTKESAESLLKENGFSVDTKEEASDTAAKGTVISYSPTKPKNGERVTLTVSSGK | 0.243 |
| HMSGLGELTPRELEVLELMAQGLSNSQIAGRLFLSGAAVAKHVSSIFSKLGFEPGDENRRVRAILAFLNR | -0.751 |
| HMSFNISPTKKLILELIMNGTAAVEAIAVKAGISKGMAYNHLRELRSMGYITDEGGYKITDSGRLAV | -0.399 |
| HMGLKWVYYTNIEPDGNKINNQKLYDILKQKFVYPVIISRDELDSMELKDLTYDSYIDVEGRYFKPYNLD | -2.03 |
| HMVDQVDKDRFLEALTQLGGSAGNVRLRETLQWEEEVYVIIKDALVKSGTILTGRGRGGSVLLASA | -0.909 |

| Sequence | soluble fraction (log2) |
| --- | --- |
| HMLISYRVDALANEAGLSVDTIRYYQKLGILDPPKRTGRHSEYSPDHLERLIEIRRLADAGLTLSQISEI | -2.33 |
| HMKKAIYPGSFDPLTLGHIDIIKRASGIVDELVVGVLNNSAKNSLFSLDERVSMIEEMTKDLPNVSVTSFD | -0.0125 |
| HMELDFNSVYRQLNHEQKQAYQSIKSVLEQKISGSELDKKLKQAQQAFVAKFKENPNFEVPK | 0.22 |
| HMGKELSTVVVPDLTGLSVLEARNVLTKVGLQLTPSGAGIAFKQIPTPGTRLTLGATVTVYFVATGY | -1.27 |
| HMVPFISVTPTSLSFAKGGESKTVDIEASGAFSVGKVPTGFNLEVVNGRITITADANTGAARNGSVEFILA | 0.00872 |
| HMEGGLIMDRIEKGLQSGVMPDLRGLNLKDALYLLESYVQVQVIGSGGVIKQSIKTGDKFIMGSVIKLEL | 0.041 |
| HMNFSRQREIIYEQVRNFPVHPTAEEVYRALKNDNPNLSLGTVYRNLNQLSEAGMLLKIPIADGSDRFDGR | -0.56 |
| HMYSVVGKKGIVIEDINYSTGTGQIKSEGEVWSAKTNEQINIPKGTEIEIESIDGVKVIVKPL | 0.221 |
| HMEDIQPSVIFQNNMIDGFKKFGVSFLQNRRNVNVNTLNGLASAGTYPKWQQLLVNKISYIDMLLSTGG | -0.137 |
| HMKIKLQATEQQRKTLDELYVQLKKLEPTSKEDLSLLYRLENPHLVSKQEAQGLISIAIGRVGSLAIEQQ | 0.258 |
| HMSLSNMIGKNIQWTHVTKTKDAEGNPKTNSETFAGNVRGVKVLNGKPMVVAQDAKGKLHEVEVSEIEAIA | 0.22 |
| HMETKIKFQIQTLDELNIRKVADWDAKAITTVKKGQILDVVDTVAAKNGSTPMYRLESGLYITASPKYVKK | 0.22 |
| HMRGPDLSKDFHEYISSQWMFFGRNAYQIAEQINKDTQLMSKYGKTTPSGVHYHIKQIQQEMEN | -0.984 |
| HMRVDDITDTILNVLKEQGGFISVTDKSSPETINKLFGVSKKTYKKAIGAIYRKKLIIIEDDGIRLNS | -0.219 |
| HMDVRKSISDLKALGLSDAAVTVYGTIGNKPVHIDKIVSELGIPVFKVLTALTQLEMKGLVTAMQGRMYVL | -0.168 |
| HMKPVPPLNGTSLRDLALGYAGRYATTAARLKHYLQRKLRERGWGGEDEPDLDGLVARLVELGYVNDEVF | -0.723 |
| HMGMAGILDSARMASFIQEKLGYGGGQIRASVMGGHGDDMVPLPRYSTVAGVPLSDVLTQNEIDEMFAQ | -0.259 |
| HMGGKWKPIILYYININSVARYSELKRFIPSINERMLTRQLRELEEDNLIERKVYPIVPPKVEYRLTEYGK | 0.0222 |
| HMNEWVSVEERLPTDERPVLAFIGYADTMNGFITTSYYFRFDPDPHWLGEGLIPVGLKTLFWMPLPAP | -0.0414 |
| HMNESADMPDVVNMSLEAAKSQLEGMGLKVKVENVEDDSVEENHVIKTSPVSGEKVKLGTTVTLTVSKGR | -0.279 |
| HMIDAHTTLLAKRLESKGFLALTDKSSAEEIYEEFGISKKAFKKALGALYKERLVRIGEDGVVWM | -0.721 |
| HMNSKQELAYQTIRARIVDGSYGPGYRIVIDEVARELGVSPIPVREAVRRLEAEGLITYTRHAGARVVA | -0.273 |
| HMNYTSEDIKLASELFFHLLNNRILPANDVLASQYYDNNEIREILENMAEEGGLRIFGTRENLHLVSNGE | -1.21 |
| HMIEGEQVRLLRLLERQEGGMLPLGDKSPASDILLLTGMSKKTFKMAVGALYKAQMITMTPTSIKLVK | 0.386 |
| HMVQDSEWWRNYQSAHDYFIQNGHLNVLRSDKKNTKLYNWIVGQRSSRWNSQGRINLLNSIGFIWDT | -1.65 |

| Sequence | soluble fraction (log2) |
| --- | --- |
| HMSGSFDVTLDYLNSLRNLYPAIDVEQEFRKMYAWLDSNPKNRKTERGIKRFITGWLGRAQDKAP | -0.9 |
| HMTMNYYDILSIKRDATLEEIQKAYKEKSFQFHPDFNKGISDDSMFRIIKEAYETLSDTEKRNQYDASLNK | -0.134 |
| HMTAAPEVRVEGLFKGAAVLKIDGQQVMLKKGRSHSSGVTLVDANAHRAIVEIDGQRHELALHMA | 0.0925 |
| HMTLSVRQRMSQIINKIDVSNFTDFTKLFDINEGRLGVAVTFLAILELLKDTMIDVIQNEEFAPLHIKVSS | -0.339 |
| HMGEPLSPDARALTNVLRHYRGWAEPGELARKSGLGSRERVLTAAQSLVNAGLADIERGMVRPTAALMEVQ | -0.0354 |
| HMIISMKKGATPQEISHVRKLIEELGYKVHESQGSERMVFGAIGDERSKHRLTSLEAQPGVEKVIPILA | 0.168 |
| HMAAGELSGEALIALIERHPMALSALATTFGHSESDLRAFVEPLARQGRLRLFESQGTLFVGGIG | 0.00392 |
| HMQDGTILPGQKTAIRSLATSGGYDSQDLDTYLATTYGKSIDGLTRTEGADVIKAFQAGTVAK | 0.165 |
| HMKLTNIQYETLKVVVESRAKIDEEEGITIKLEDIKKYIDQAISFTGLVGDDEDYKKLFADMEYRFKIQ | -0.925 |
| HMPNIQLARNLKYLRLAYGLTQDDLGAFLNISRQAYSNYENLKRSPDLDSLIRLASLYHLSLDDLVSR | -1.24 |
| HMSMDPYTVLGVNKSSTDSQIKNAYKNLAKQHHPDRGGNEAKFKEISTAYEQIKTAEKRQQYDMSQQF | 0.389 |
| HMEQVLDEEIIKSAVQKVIKDNPSAVSDYKAGKKTAFQFLIGKAMAELQGKGHPGKISELLEKE | 0.257 |
| HMSTANISIEQAKEIALNHANLTSNQVIFSRTELDYDNGIQKYEVEFYYNNREYSYEINANTGDILGYEQ | -0.417 |
| HMYQPLYEQIKRMLTQSLIDGEWKAGEMIPSEMELAARFKVSQGTVRKAIDELVSENILMRRQGKGTFVH | 0.22 |
| HMFGDQMQSYLSRLSQIDVDIIALKYGDNFTYREIGLILEMSEDSVRQRAVRARKKLETMIQKG | -1.29 |
| HMNTEEITYSRFQQMLEAGEISQVSIESNRILILPSEETGIEKVLYTGIINDPGLVERLNSAGVEFRAPIE | -1.16 |
| HMRNLYEILGVSKDAPQGEIKSAYRKLAKTYHPDLNPNNEKAAELFKEINQAYEVLSDETKRRHYDQFGEA | ≥ 0.43 |
| HMENVALYIRLKSMASVYDDVHGYNIEWIKSMIGLSIDIEKLRTVLEDVSWITKVEEDVYSFSKNAKPFE | -2.32 |
| HMAPAILTVQVKPDKIREIIGPGGKMIRMIQSETNTRVEVDDSGLVKIAAVSKEEGEAALKMVSDITME | -0.177 |
| HMRTITYSITPAHAGMSVERYLKQQHGYSTRTLVKLKHYPQGLQLNGQHARTVDLLQAGDTLAVTFLD | 0.145 |
| HMNELIGVEQLQDLREAIADHGFAEQRVLNWLYQATKGQVSRLEQLPLPMLTTLHKKLGQWADAEAAASSA | -0.499 |
| HMYALGIPVSQYRRTTQVLGHESSYPIAYEDEKQDDDFYLFKFPNIDEYDFKKIVILLKQNGITT | -0.338 |
| HMNTEFDVPDVVGKTLDEAEFVLKGSNLKRGLIMPVDDPSKAPGTIVRQNPEAGAGNKIRVGDVVDLWVVG | 0.187 |
| HMKIYDQVVDRIKDRISKGDMPQGSALPPERQLIDELNVSRSSLREGFRILEMMGLIESIPGKGRFVRTSR | -0.619 |
| HMNGKTIEVPDITEKSIAEAQLILNQKKLRYNVVDSTRFDPAYLPFSVLTQEPEAGDEVKKNRTIYITLNP | -0.0716 |
